The values that follow come from paper PMC6553756 (PLoS ONE, 2019).

In test [1] the target is T1, recombinant mouse PrP (Mus musculus, UniProt P04925).
T1 construct: also called rMoPrP
Briefly: ELISA. On the technique in general: In an ELISA, binding on a coated surface is turned into a signal by an enzyme label.

In test [2] the target is T2, cellular prion protein (PrP^C) expressed in the brain of mock-infected mice (Mus musculus, mouse strain not shown, UniProt P04925).
T2 construct: source: endogenous, frozen brain sections of mock-infected mice
T2 sequence (P04925 23-230): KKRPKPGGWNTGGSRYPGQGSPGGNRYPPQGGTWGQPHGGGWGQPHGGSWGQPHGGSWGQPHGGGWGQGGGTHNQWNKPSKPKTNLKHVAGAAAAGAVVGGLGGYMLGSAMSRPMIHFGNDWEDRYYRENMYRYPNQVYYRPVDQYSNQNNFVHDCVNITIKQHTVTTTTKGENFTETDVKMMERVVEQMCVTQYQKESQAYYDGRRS
Kind of test: immunostaining of cells or tissue. The conditions noted are these: one partner purified.

Test [3] addresses abnormal isoform prion protein (PrP^Sc) in the brain of Chandler prion-infected mice (Mus musculus, brain, Chandler prion …, UniProt P04925). Briefly: immunostaining of cells or tissue. The conditions noted are these: one partner purified.

T1 sequence (P04925 23-230): as above
Sequence of abnormal isoform prion protein (PrP^Sc) in the brain of Chandler prion-infected mice (P04925 23-230): as above

B1: authentic anti-PrP monoclonal antibody 44B1 (IgG-44B1) (antibody, V domains shown)
VH: DVKLVESGEGLVKPGGSLKLSCAASGITFSRYAMSWVRQTPEKRLEWVAYISSGGDYINYADTVKGRFTISRDNARNTLYLQMSSLKSEDTAMYYCTRVTPYWYFDVWGTGTTVTVSS
VL: DIVLTQSPASLGVSLGQRATISCRASESVDSYGNSFMHWYQQKPGQPPKVLIYRASNRESGIPARFSGSGSRTDFTLTINPVEADDVATYYCQQSNEDPYTFGGGTKLEIK
notes: also called mAb 44B1; source: hybridoma, purified IgG; copies: 2 + 2
Regarding B1, the binding result in test [1] (both partners purified), in test [2] and in test [3] was “binds” throughout.

B2: recombinant Fab of mAb 44B1 (rFab-44B1) (Fab, V domains shown)
VH: DVKLVESGEGLVKPGGSLKLSCAASGITFSRYAMSWVRQTPEKRLEWVAYISSGGDYINYADTVKGRFTISRDNARNTLYLQMSSLKSEDTAMYYCTRVTPYWYFDVWGTGTTVTVSS
VL: DIVLTQSPASLGVSLGQRATISCRASESVDSYGNSFMHWYQQKPGQPPKVLIYRASNRESGIPARFSGSGSRTDFTLTINPVEADDVATYYCQQSNEDPYTFGGGTKLEIK
notes: source: HEK293T, transfected (IRES plasmid), culture supernatant
B2: the binding result in test [1] (one partner purified) is “binds”.
